The values below come from publication doi:10.1101/329136.

Test [1] addresses talin VBS1 (H1-H4) residues 482-636 (UniProt Q9Y490). Briefly: ITC.
The target of test [2] is IpaA 483-633 containing all three VBS1-3 (A483) (Shigella flexneri) (UniProt P18010). Nature of the test: SEC-MALS.
The target in test [3] is talin VBS1 (H1-H4) residues 482-636 (UniProt Q9Y490). Briefly: SEC-MALS. A general note: In gel filtration, larger molecules generally elute earlier.
For test [4], the target named is IpaA 483-633 containing all three VBS1-3 (A483) (Shigella flexneri) (UniProt P18010). Nature of the test: ITC. In general terms: In ITC the heat of successive injections is recorded.
Test [5] addresses IpaA 524-633 containing only IpaA VBS1-2 (A524) (Shigella flexneri) (UniProt P18010). Nature of the test: ITC.

Substance IpaA VTBS A495K peptide returned a Kd in test [1] of 2.93 µM.
Substance IpaA VTBS K498E peptide returned a dissociation constant (Kd) in test [1] of 0.3 µM.
As to IpaA VTBS R489A K498A peptide, the dissociation constant Kd in test [1] is 0.328 µM.
For the substance IpaA VTBS peptide (488-512), the equilibrium dissociation constant (Kd) in test [1] was 0.174 µM. This Kd is about 1.9-fold lower than that of the substance before.
Take “IpaA-VBS1 peptide (611-633) (from UniProt P18010 611-633)”: the dissociation constant Kd in test [1] is 15.2 µM. Compared with the last substance, the Kd is about 87-fold higher.
Regarding Talin VBS46 peptide, the Kd in test [1] was found to be 0.06 µM.
Substance Talin VBS50 peptide showed an equilibrium dissociation constant (Kd) in test [1] of 15 to 45 µM.
For the substance “talin VBS1 (H1-H4) residues 482-636 (from UniProt Q9Y490 482-636) (domain or fragment)”, the stoichiometry N (talin H1-H4 per A483) in test [2] came out at 2. The stoichiometry N in test [3] is 2. Besides, in test [4], the KD of the first, high affinity site was 0.115 µM and the KD of the second site stood at 4.6 µM. The Kd in test [5] was 2 µM.

What is called Kd is the concentration at which binding is half-saturated. A high value points to weaker binding. A word on the stoichiometry N: it is the number of molecules, sites or subunits per partner or assembly.
